Data as given in publication PMC10851439 (Biochemistry, 2024).
Read-outs that look alike come from different tables or passages of the source. Values belong to the substance of their own block, whether it stands above or below them.

How the values were obtained:
[1] = at the concentrations used for affinity experiments; cited from earlier work
NTHi SapA [2] = biological target: T1, NTHi SapA (Haemophilus influenzae, UniProt Q4QL73); assay: Spectral shift assay with fluorescently labeled SapA; type: binding, nontypeable Haemophilus influenzae; conditions: peptide up to 100 or 500 μM, triplicate
T1 sequence (Q4QL73 32-546): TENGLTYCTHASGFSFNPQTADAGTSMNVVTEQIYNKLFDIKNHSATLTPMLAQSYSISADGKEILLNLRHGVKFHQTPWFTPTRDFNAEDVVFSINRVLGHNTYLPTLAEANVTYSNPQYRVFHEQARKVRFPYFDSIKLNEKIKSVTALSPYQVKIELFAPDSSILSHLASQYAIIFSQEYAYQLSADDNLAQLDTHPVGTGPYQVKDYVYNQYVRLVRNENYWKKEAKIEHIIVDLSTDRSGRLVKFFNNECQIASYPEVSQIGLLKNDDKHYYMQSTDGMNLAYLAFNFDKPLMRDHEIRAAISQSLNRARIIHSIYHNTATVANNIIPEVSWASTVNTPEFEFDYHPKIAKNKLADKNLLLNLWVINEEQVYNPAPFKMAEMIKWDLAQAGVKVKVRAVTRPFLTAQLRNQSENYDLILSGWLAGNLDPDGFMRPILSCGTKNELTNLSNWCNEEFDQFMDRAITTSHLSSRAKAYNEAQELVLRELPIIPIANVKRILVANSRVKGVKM

NTHi SapA [3] = biological target: T1, NTHi SapA; assay: SPR single-cycle kinetics, SapA over immobilized AMPs; type: binding, nontypeable Haemophilus influenzae; conditions: LL-37 immobilized on SPR sensor chip, five increasing SapA concentrations
[4] = Dynamic light scattering of LL-37; type: physicochemical; conditions: LL-37 at 1 mg/mL; data not shown
[5] = test system: NTHi strain 86–028NP (parent strain); assay: Bactericidal assay, parental strain; type: cell-based, nontypeable Haemophilus influenzae; conditions: 10 μg/mL AMP, 1 h
[6] = test system: NTHi 86–028NP ΔsapA mutant; assay: Bactericidal assay, ΔsapA mutant; type: cell-based, nontypeable Haemophilus influenzae; conditions: 10 μg/mL AMP, 1 h
[7] = biological target: hBD-3_(loop) peptide (C2–C4 loop region of hBD-3 with C-terminal linker) (human); assay: SPR
[8] = biological target: hNP-1_(loop) peptide (C2–C4 loop region of hNP-1 with C-terminal linker) (human); assay: SPR
[9] = biological target: hBD-2_(loop) peptide (C2–C4 loop region of hBD-2 with C-terminal linker) (human); assay: SPR
[10] = biological target: human α-defensin 1 (hNP-1) (human); assay: SPR
[11] = biological target: hBD-3_(loop) peptide (C2–C4 loop region of hBD-3 with C-terminal linker) (human); assay: SPR; remark: listed apart in the source
[12] = biological target: human β-defensin 2 (hBD-2) (human) (UniProt O15263); assay: SPR
[13] = biological target: hNP-1_(loop) peptide (C2–C4 loop region of hNP-1 with C-terminal linker) (human); assay: SPR; remark: listed apart in the source
[14] = biological target: hBD-2_(loop) peptide (C2–C4 loop region of hBD-2 with C-terminal linker) (human); assay: SPR; remark: listed apart in the source
[15] = biological target: human β-defensin 3 (hBD-3) (human) (UniProt P81534); assay: SPR
[16] = cited from earlier work

Sequence of human β-defensin 3 (hBD-3) (human) (P81534 23-67): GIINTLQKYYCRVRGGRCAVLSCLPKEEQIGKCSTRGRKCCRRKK
Sequence of human β-defensin 2 (hBD-2) (human) (O15263 24-64): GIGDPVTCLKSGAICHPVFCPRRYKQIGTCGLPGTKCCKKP

Substance: LL-37: alpha helical peptide, the only member of the cathelicidin family found in humans
- oligomeric state in solution [1]: higher order oligomers
- affinity to labeled SapA, result in words (NTHi SapA [2]): low affinity
- SapA binding to LL-37 (SPR), result in words (NTHi SapA [3]): low affinity
- aggregation by dynamic light scattering [4]: aggregated at high concentrations
- survival of the parent strain at 10 μg/mL [5]: neither the parent strain nor the ΔsapA mutant survived
- survival of the ΔsapA mutant at 10 μg/mL [6]: neither the parent strain nor the ΔsapA mutant survived

Substance: PR-39
- net charge [16]: +10

Substance: PSSEQ [hBD-3PSSEQ]
- affinity to labeled SapA, result in words (NTHi SapA [2]): completely abolished affinity

Substance: protamine
- net charge [16]: +21

More lines, now with the values ahead:

- ka1 (two-state model, first step) [7]: 280000 M⁻¹ s⁻¹
- ka2 (two-state model, second step) [7]: 0.012 s⁻¹
- kd1 (two-state model, first step) [7]: 0.028 s⁻¹
- kd2 (two-state model, second step) [7]: 0.00012 s⁻¹
- Kd [8]: 3.8 nM
- ka1 (two-state model, first step) [8]: 880000 M⁻¹ s⁻¹
- ka2 (two-state model, second step) [8]: 0.0064 s⁻¹
- kd2 (two-state model, second step) [8]: 0.00045 s⁻¹
- ka1 (two-state model, first step) [9]: 760000 M⁻¹ s⁻¹
- ka2 (two-state model, second step) [9]: 0.0095 s⁻¹
- kd1 (two-state model, first step) [9]: 0.034 s⁻¹
- kd2 (two-state model, second step) [9]: 0.00024 s⁻¹
- Kd [10]: 4 nM
- ka1 (two-state model, first step) [10]: 360000 M⁻¹ s⁻¹
- ka2 (two-state model, second step) [10]: 0.0061 s⁻¹
- kd1 (two-state model, first step) [10]: 0.012 s⁻¹
- kd2 (two-state model, second step) [10]: 0.00069 s⁻¹
- Kd [11]: 17.2 nM
- ka2 (two-state model, second step) [11]: 0.004 s⁻¹
- kd1 (two-state model, first step) [11]: 0.033 s⁻¹
- kd2 (two-state model, second step) [11]: 0.003 s⁻¹
- Kd [12]: 17.5 nM
- ka1 (two-state model, first step) [12]: 630000 M⁻¹ s⁻¹
- ka2 (two-state model, second step) [12]: 0.013 s⁻¹
- kd1 (two-state model, first step) [12]: 0.047 s⁻¹
- kd2 (two-state model, second step) [12]: 0.0026 s⁻¹
- Kd [13]: 17.1 nM
- ka2 (two-state model, second step) [13]: 0.0026 s⁻¹
- kd1 (two-state model, first step) [13]: 0.023 s⁻¹
- kd2 (two-state model, second step) [13]: 0.0019 s⁻¹
- Kd [14]: 9.5 nM
- ka1 (two-state model, first step) [14]: 750000 M⁻¹ s⁻¹
- ka2 (two-state model, second step) [14]: 0.0024 s⁻¹
- kd1 (two-state model, first step) [14]: 0.019 s⁻¹
- kd2 (two-state model, second step) [14]: 0.0014 s⁻¹
- Kd [15]: 10.5 nM
- ka1 (two-state model, first step) [15]: 710000 M⁻¹ s⁻¹
- ka2 (two-state model, second step) [15]: 0.0059 s⁻¹
- kd1 (two-state model, first step) [15]: 0.019 s⁻¹
- kd2 (two-state model, second step) [15]: 0.0022 s⁻¹
Substance: NTHi SapA (residues 32–546), wild type (from UniProt Q4QL73 32-546) (natural protein)

- affinity to labeled SapA, result in words (NTHi SapA [2]): completely abolished affinity
Substance: SSYGT [hNP-1SSYGT]

- affinity to labeled SapA, result in words (NTHi SapA [2]): completely abolished affinity
Substance: SSYKQ [hBD-2SSYKQ]
